# Assay results reported in PMC12144180 (Nature Communications, 2025).
# T1: RNA polymerase I subunit A135 (S. cerevisiae, UniProt P22138 1-1203)
# T1 sequence: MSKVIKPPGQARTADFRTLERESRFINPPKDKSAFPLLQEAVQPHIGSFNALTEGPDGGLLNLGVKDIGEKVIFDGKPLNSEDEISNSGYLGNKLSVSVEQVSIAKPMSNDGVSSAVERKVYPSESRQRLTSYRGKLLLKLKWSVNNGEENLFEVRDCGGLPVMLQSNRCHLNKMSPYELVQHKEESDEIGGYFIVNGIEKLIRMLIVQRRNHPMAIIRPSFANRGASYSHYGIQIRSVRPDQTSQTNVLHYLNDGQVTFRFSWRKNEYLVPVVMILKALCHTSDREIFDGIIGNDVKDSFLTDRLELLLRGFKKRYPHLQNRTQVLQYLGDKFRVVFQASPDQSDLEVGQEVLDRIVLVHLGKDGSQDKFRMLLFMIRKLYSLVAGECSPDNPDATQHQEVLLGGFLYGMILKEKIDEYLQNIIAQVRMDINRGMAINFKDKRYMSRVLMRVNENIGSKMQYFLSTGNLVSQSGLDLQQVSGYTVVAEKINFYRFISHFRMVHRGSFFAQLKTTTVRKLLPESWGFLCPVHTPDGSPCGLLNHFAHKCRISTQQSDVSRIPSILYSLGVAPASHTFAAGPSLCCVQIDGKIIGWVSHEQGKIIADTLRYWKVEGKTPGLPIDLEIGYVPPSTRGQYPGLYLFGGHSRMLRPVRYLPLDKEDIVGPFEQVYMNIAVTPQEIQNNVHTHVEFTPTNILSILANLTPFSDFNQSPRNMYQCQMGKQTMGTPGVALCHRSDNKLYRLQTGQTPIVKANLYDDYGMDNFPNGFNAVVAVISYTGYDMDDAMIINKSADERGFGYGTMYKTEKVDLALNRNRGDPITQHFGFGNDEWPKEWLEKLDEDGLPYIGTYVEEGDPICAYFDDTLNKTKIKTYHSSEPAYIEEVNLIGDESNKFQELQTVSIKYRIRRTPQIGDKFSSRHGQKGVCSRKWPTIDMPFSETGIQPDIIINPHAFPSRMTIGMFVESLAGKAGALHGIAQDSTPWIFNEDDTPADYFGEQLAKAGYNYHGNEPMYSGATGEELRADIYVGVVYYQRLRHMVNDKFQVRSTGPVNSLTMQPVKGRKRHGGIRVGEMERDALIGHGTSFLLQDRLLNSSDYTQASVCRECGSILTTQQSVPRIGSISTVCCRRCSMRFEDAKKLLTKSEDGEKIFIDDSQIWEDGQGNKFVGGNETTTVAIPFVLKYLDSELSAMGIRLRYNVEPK
# B1: RNA polymerase I subunit A12 (natural protein)
# chain: MSVVGSLIFCLDCGDLLENPNAVLGSNVECSQCKAIYPKSQFSNLKVVTTTADDAFPSSLRAKKSVVKTSLKKNELKDGATIKEKCPQCGNEEMNYHTLQLRSADEGATVFYTCTSCGYKFRTNN
# B2: A49/A34.5 heterodimer of RNA polymerase I (complex)
# chain 1: MSVKRSVSEIEIESVQDQPSVAVGSFFKGFRAPSDTTFDLYKKKKSEKDEFVLHGENERLEYEGYTDSSSQASNQYVVGLFNPEKKSIQLYKAPVLVSKVVSKSSKNLRGPKIKSKSDTRPSALRNALGEAFGTKKAKKAIADLERNRIDSDKLTDSAIDIVDSVRTASKDLPTRAQLDEITSNDRPTPLANIDATDVEQIYPIESIIPKKELQFIRVSSILKEADKEKKLELFPYQNNSKYVAKKLDSLTQPSQMTKLQLLYYLSLLLGVYENRRVNNKTKLLERLNSPPEILVDGILSRFTVIKPGQFGRSKDRSYFIDPQNEDKILCYILAIIMHLDNFIVEITPLAHELNLKPSKVVSLFRVLGAIVKGATVAQAEAFGIPKSTAASYKIATMKVPFKLPEMTRRGRGPRR
# chain 2: MSKLSKDYVSDSDSDDEVISNEFSIPDGFKKCKHLKNFPLNGDNKKKAKQQQVWLIKFPSNVDISKLKSLPVDFESSTTMTIDKHDYKIMDDTDIESSLTQDNLSNMTLLVPSESKESLKIASTAKDNAPLQFDKVFSVSETAKIPAIDYSKVRVPRKDVPKVEGLKLEHFATGYDAEDFHVAEEVKENKKEPKKRSHHDDEEESSEKKKKKKEKREKREKKDKKDKKKKHRD
# Biological target: T1, RNA polymerase I subunit A135
# Assay: cryo-EM structure
row,Binder,binding result
1,B1,binds
2,B2,binds
